Assay results reported in patent publication US20030092631A1 (Genentech, published 2003).
Bridge positions count the residues as written; N and C are the ends. Ends that are not written are not given here.

What was measured:
IGF-1 [1] = biological target: T1, IGF-1 (human, UniProt P05019 49-118); experiment: monovalent phage ELISA; soluble IGF-1 titrated against peptide-phage binding to immobilised IGF-1
IGF-1 [2] = biological target: T1, IGF-1; experiment: displacement of 125I-IGF-1 (2 nM) from receptors on MCF-7 cells
Experimental: Cell were passaged weekly in media containing a 50/50 mix of high-glucose DMEM/ Ham's F12, with 10% fet al bovine serum and 10 mM HEPES pH 7.2. Cells were plated and grown overnight maintained at 37° C. and 5% CO₂. For IGF-1 iodination, 50 μg of IGF-1 was diluted into 200 μL of PBS and added to a tube coated with 100 μg of IODOGEN® 1,3,4,6-tetrachloro-3a-6β-diphenylglycouril) (Pierce Chemical Co.), incubated with 1 mCi of ¹²²⁵-Nal (10 μL) at room temperature for 10-15 minutes. Synthesized peptides and binding protein controls were preincubated with 2 nm ¹²⁵I IGF-1 for 40 minutes at 37° C. The samples were added to cells for 30 minutes. The cells were washed with media and lysed with 1N NaOH.

IGF-1 [3] = biological target: T1, IGF-1; experiment: cell-based or functional assay
[4] = biological target: T2, phage displaying human IGF-1 (phage vector pIGF-g3) (human, UniProt P05019 49-118); experiment: competition phage ELISA: peptide against IGF-1 phage binding to IGFBP-3 on plate
T2 construct: Construct as in Dubaquie and Lowman; also called IGF-1 displaying phage; Phage IGF-1; not shown: g3 of the phage vector pIGF-g3 (M13 gene III protein)
Experimental: (§1) The IGF-1 displaying phage was titered against IGF bp1 and bp3 for a 500-1000× dilution for preincubation with serial dilutions the synthesized peptides and binding protein standards for 45 minutes. Immunosorbant plates were coated with IGF binding proteins and blocked with 0.5% TWEEN®-20 detergent and PBS and washed as above. The samples were added to the plates for 20 minutes, washed and detected as above. The experimental IC50 values are in Table 5.

[5] = biological target: T2, phage displaying human IGF-1 (phage …); experiment: competition phage ELISA: peptide against IGF-1 phage binding to IGFBP-1 on plate
Experimental: as §1

T1 sequence (P05019 49-118): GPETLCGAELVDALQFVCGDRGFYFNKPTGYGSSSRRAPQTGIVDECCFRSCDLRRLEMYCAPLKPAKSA
T2 sequence (P05019 49-118 limits assumed): as the sequence (P05019 49-118) above

Row | IC50 (IGF-1 [1]) [µM] | IC50 (IGF-1 [2]) [µM] | IGF-1 KIRA (IGF-1 [3]) [µM] | Insulin KIRA (IGF-1 [3]) [µM] | IC50 [4] [µM] | IC50 [5] [µM] | Molecule
1 | 209 |  |  |  |  |  | … (from UniProt P01241 27-217) (peptide)
2 |  | 5.12 | 84.9 | 5.48 | 2.93 | 1.4 | RNCFESVAALRRCMYG (disulfide 3-13, synthetic peptide; also called IGF-F1-1) [F1-1]
3 |  | 45.7 | 102 | 66.1 | 12.8 | 11.7 | FECLTSVEALRGCMYG (synthetic peptide) [F1-3]
4 |  | 15.3 | 20 | 32.6 | 9.2 | 15.5 | MDCLASVEALKWCMYG (synthetic peptide) [F1-2]
